Results as given in patent US20220348635A1, “COMPOSITIONS AND METHODS FOR NEUROLOGICAL DISEASES” (Coda Biotherapeutics, Inc., priority 2019, published 2022).
Where a chain is given by its changes, count along the chain named. Numbers in names are those of the source.

Key:
[1] = Sensitivity of parental chimera versus wild type α7-nAChR, TC-6987
From the text: (§1) To generate LGICs that conduct anion current following exposure to non-native small molecule agonists of the human α7-nAChR, chimeric ligand gated ion channel (LGIC) receptors comprising the ligand binding domain derived from the human α7 nicotinic acetylcholine receptor (α7-nAChR) and the chloride-conducting ion pore domain derived from the human GlyR1α were genetically engineered.

[2] = Sensitivity of parental chimera versus wild type α7-nAChR, AZD-0328
From the text: as §1

[3] = Sensitivity of parental chimera versus wild type α7-nAChR, nicotine
From the text: as §1

[4] = Sensitivity of parental chimera versus wild type α7-nAChR, ABT-126
From the text: as §1

[5] = Sensitivity of parental chimera versus wild type α7-nAChR, acetylcholine
From the text: as §1

[6] = Sensitivity of parental chimera versus wild type α7-nAChR, Facinicline/RG3487
From the text: as §1

[7] = High throughput electrophysiology in HEK293T cells, RG-3487; type: cell-based
Description: To confirm the EC50s determined by plate reader as well as develop a better understanding of maximum current flow, the engineered receptors were subjected to high throughput electrophysiology system, as described below. For HEK293T studies, cDNAs encoding ion channels were cloned into pcDNA3.1 using standard recombination techniques. HEK293T cells from Clontech (Lenti-X™ 293T Cell Line) were cultured in DMEM supplemented with 10% FBS and 1% Pen/Strep to 40-50% confluence using standard cell culture protocols, transfected with ion channel plasmids at a concentration of 18 μg per 15 cm dish using Fugene 6, and grown for an additional 24 hours. Cells were then assayed on a electrophysiological system (IonFluxHT and/or Mercury, Fluxion Biosciences) in which dose-response relationships may be assessed through a microfluidics-based platform for establishing whole cell configurations. […] Data were then analyzed off-line using custom Python scripts to convert data to .csv format, re-plot traces, and apply QC measurements to reject unstable recordings (i.e. thresholding based on access resistance and/or standard deviation in baseline, as well as artifact rejection). Peak currents were then calculated and population data were fit using a 4-parameter logistic equation as described by the Hill Equation. […]

[8] = High throughput electrophysiology in HEK293T cells, AZD-0328; type: cell-based
Description: To confirm the EC50s determined by plate reader as well as develop a better understanding of maximum current flow, the engineered receptors were subjected to high throughput electrophysiology system, as described below. For HEK293T studies, cDNAs encoding ion channels were cloned into pcDNA3.1 using standard recombination techniques. HEK293T cells from Clontech (Lenti-X™ 293T Cell Line) were cultured in DMEM supplemented with 10% FBS and 1% Pen/Strep to 40-50% confluence using standard cell culture protocols, transfected with ion channel plasmids at a concentration of 18 μg per 15 cm dish using Fugene 6, and grown for an additional 24 hours. Cells were then assayed on a electrophysiological system (IonFluxHT and/or Mercury, Fluxion Biosciences) in which dose-response relationships may be assessed through a microfluidics-based platform for establishing whole cell configurations. Ensemble plates were primed with extracellular buffer (140 mM NaCl, 5 mM KCl, 2 mM CaCl2), 1 mM MgCl2, 10 mM HEPES, and 10 mM glucose, pH 7.2 with NaOH, mOsm 310), intracellular buffer (145 mM CsCl, 2 mM CaCl2, 2 mM MgCl2, 10 mM HEPES, and 10 mM EGTA, pH 7.2 with CsOH, mOsm 305), as adapted from Lynagh and Lynch, and test compounds (stocks prepared fresh) diluted in extracellular buffer. Cells were then released from the plate with Accutase, centrifuged, resuspended in extracellular buffer, and loaded into Ensemble plates. Cells were then subjected to a standard protocol for priming, trapping, breaking, and establishing whole cell configuration, with cells held at −60 mV throughout the recording. After recording baseline, progressive doses of test compounds were applied using the IonFlux software to assess dose response relationships. Data were then analyzed off-line using custom Python scripts to convert data to .csv format, re-plot traces, and apply QC measurements to reject unstable recordings (i.e. thresholding based on access resistance and/or standard deviation in baseline, as well as artifact rejection). Peak currents were then calculated and population data were fit using a 4-parameter logistic equation as described by the Hill Equation. Currents were measured on an automated patch clamp system (Fluxion Biosciences) following 1 second addition of drug and the EC50 values calculated are tabulated below in Table 13.

[9] = YFP quench plate reader assay, response to AZD-0328; type: cell-based; conditions: LX293T YFP reporter cells
From the text: (§2) FIGS. 1A-FIG. 1G show the heat maps of the percent quench of YFP fluorescence in the mutants of the engineered chimeric receptor SEQ ID NO:33 that comprise the indicated double amino acid substitutions following stimulation by various doses of either acetylcholine or the indicated non-native ligand. Ligand doses are written across the top of each chart. Numbers in the boxes indicate the absolute amount of quench observed. Dark blue=80% maximal quench of YFP reporter. Light blue=quench of 30-80%. White=10-30%. Orange=0-10% quench. Negative values represent non-responders that have a negative quench due to a stimulation artifact. SEQ ID NO:29 is a non-responding chimera used as a negative control. Abbreviations for non-native ligand names: abt: ABT-126; ach: acetylcholine; apn: APN-1125; azd: AZD-0328; brd: TC-5619; fac: RG3487; tc6: TC-6987.
(§3) Tables 2-8 below lists percent quench of YFP fluorescence following stimulation of the indicated engineered receptor by various doses of either acetylcholine or the non-native ligand.
(§4) To screen these mutant LGICs for those having novel response profiles to ligands, an anion reporter assay was developed to assess the function of channels in a high throughput format. In this assay, cells expressing a YFP reporter whose fluorescence is quenched in the presence of anion are transfected with DNA encoding the channel of interest. Upon exposure to ligand, channels that are activated will flux anion, resulting in a dose-dependent quench of the YFP that can be detected on a plate reader.
(§5) Lenti-X 293T cells (LX293T, Clontech) were maintained in DMEM containing 10% FBS and 1% penicillin/streptomycin (Invitrogen). […] Two days before assay, cells were split at a density of 20,000 cells/well in a 96-well tissue culture plate coated with poly-d lysine (Thermo Scientific). The next day, the cells were transiently transfected with 0.1 μg of DNA per well using standard Fugene protocol (Promega). On the day of assay, cells were washed 2 times in 1× extracellular solution (1×ECS: 140 mM NaCl, 5 mM KCl, 1 mM MgCl2, 2 mM CaCl2, 10 mM HEPES, 10 mM glucose, pH 7.2, mOsms 300). After the last wash, 100 μL of 1×ECS was added to the wells and the plate was incubated at 37° C. for 30 min. While incubating the plate, the drugs were diluted to a 2× concentration in 1×ECS-NaI (same components as 1×ECS except the 140 mM NaCl was replaced by 140 mM NaI). The plates were then read on a Flexstation3 (Molecular Devices). Each well, 8 wells at a time, of the plate is read for 2 min using a Flexstation3 (Molecular Devices) as follows: 1) a baseline YFP fluorescence is read for 17 sec, 2) 100 μL of ligand is added, and 3) the changes in YFP fluorescence are then measured every 1.3 sec for the remaining time.
(§6) FIG. 1 provides heat maps of the percent quench of YFP fluorescence following stimulation by various doses of either acetylcholine or the non-native ligand as indicated in the Figure. A positive fluorescence signal, as indicated by blue shaded cells, indicate that the engineered receptor is activated by the non-native ligand at that concentration. […] Table 12 lists the EC50 values for the indicated double mutants to acetylcholine (Ach) and TC-5619 as determined from the YFP fluorescence plate reader experiment.

[10] = YFP quench plate reader assay, response to APN-1125; type: cell-based; conditions: LX293T YFP reporter cells
From the text: as §2, §3, §4, §5, §6

[11] = YFP quench plate reader assay, response to RG3487; type: cell-based; conditions: LX293T YFP reporter cells
From the text: as §2, §3, §4, §5, §6

[12] = YFP quench plate reader assay, response to TC-5619; type: cell-based; conditions: LX293T YFP reporter cells
From the text: as §2, §3, §4, §5, §6

[13] = YFP quench plate reader assay, response to acetylcholine; type: cell-based; conditions: LX293T YFP reporter cells
From the text: as §2, §3, §4, §5, §6

[14] = YFP quench plate reader assay, response to ABT-126; type: cell-based; conditions: LX293T YFP reporter cells
From the text: as §2, §3, §4, §5, §6

[15] = YFP quench plate reader assay, response to TC-6987; type: cell-based; conditions: LX293T YFP reporter cells
From the text: as §2, §3, §4, §5, §6

B1: SEQ ID NO: 33: parental CHRNA7/GLRA1 chimera: α7-nAChR ligand binding domain with GlyRα1 Cys-loop, fused to GlyRα1 ion pore domain (protein)
chain: MRCSPGGVWLALAASLLHVSLQGEFQRKLYKELVKNYNPLERPVANDSQPLTVYFSLSLLQIMDVDEKNQVLTTNIWLQMSWTDHYLQWNVSEYPGVKTVRFPDGQIWKPDILLYNSADERFDATFHTNVLVNSSGHCQYLPPGIFKSSCPMDLKNFPMDVQTCKLKFGSWSYGGWSLDLQMQEADISGYIPNGEWDLVGIPGKRSERFYECCKEPYPDVTFTVTMRRRMGYYLIQMYIPSLLIVILSWISFWINMDAAPARVGLGITTVLTMTTQSSGSRASLPKVSYVKAIDIWMAVCLLFVFSALLEYAAVNFVSRQHKELLRFRRKRRHHKSPMLNLFQEDEAGEGRFNFSAYGMGPACLQAKDGISVKGANNSNTTNPPPAPSKSPEEMRKLFIQRAKKIDKISRIGFPMAFLIFNMFYWIIYKIVRREDVHNQ
modifications: synthetic sequence of chimeric LGIC
- sensitivity to TC-6987 compared to wild type α7-nAChR [1]: approximately as sensitive
- type of agonist activity of TC-6987 on the receptor ([1]; similar to wild type): partial agonist activity
- fold more sensitive to AZD-0328 than wild type [2]: approximately 3 fold
- fold less sensitive to nicotine than wild type [3]: ~2 fold
- sensitivity to ABT-126 compared to wild type α7-nAChR [4]: approximately as sensitive
- sensitivity to acetylcholine compared to wild type α7-nAChR [5]: approximately as sensitive
- fold more sensitive to Facinicline/RG3487 than wild type [6]: ~10 fold

B2: L131D, S172D in SEQ ID NO: 33: engineered chimeric α7-nAChR/GlyRα1 LGIC receptor: SEQ ID NO: 33 with substitutions L131D and S172D (protein)
chain: B1 chain with L131D, S172D
modifications: synthetic sequence of chimeric LGIC
- fold increased potency to RG-3487 compared to wild type receptor [7]: at least 10 fold
- fold increased potency towards AZD-0328 compared to wild type receptor [8]: at least 10 fold
- percent quench of YFP fluorescence, 100 nM azd ([9]; 100 nM AZD-0328): 51.44%
- percent quench of YFP fluorescence, 300 nM azd ([9]; 300 nM AZD-0328): 77.12%
- percent quench of YFP fluorescence, 30 uM azd ([9]; 30 uM AZD-0328): 79.26%
- percent quench of YFP fluorescence, 100 nM apn ([10]; 100 nM APN-1125): 71.72%
- percent quench of YFP fluorescence, 1 uM apn ([10]; 1 uM APN-1125): 77.26%
- percent quench of YFP fluorescence, 30 uM apn ([10]; 30 uM APN-1125): 77.5%
- percent quench of YFP fluorescence, 30 nM fac ([11]; 30 nM RG3487): 24.15%
- percent quench of YFP fluorescence, 300 nM fac ([11]; 300 nM RG3487): 80.17%
- percent quench of YFP fluorescence, 10 uM fac ([11]; 10 uM RG3487): 81.34%
- percent quench of YFP fluorescence, 30 uM fac ([11]; 30 uM RG3487): 79.9%
- percent quench of YFP fluorescence, 1 nM brd ([12]; 1 nM TC-5619): −1.24%
- percent quench of YFP fluorescence, 3 nM brd ([12]; 3 nM TC-5619): 0.25%
- percent quench of YFP fluorescence, 10 nM brd ([12]; 10 nM TC-5619): −2.57%
- percent quench of YFP fluorescence, 30 nM brd ([12]; 30 nM TC-5619): 0.78%
- percent quench of YFP fluorescence, 100 nM brd ([12]; 100 nM TC-5619): 4.51%
- percent quench of YFP fluorescence, 300 nM brd ([12]; 300 nM TC-5619): 30.97%
- percent quench of YFP fluorescence, 1 uM brd ([12]; 1 uM TC-5619): 44.41%
- percent quench of YFP fluorescence, 10 uM ach ([13]; 10 uM acetylcholine): −12.91%
- percent quench of YFP fluorescence, 100 uM ach ([13]; 100 uM acetylcholine): −20.88%
- percent quench of YFP fluorescence, 1 mM ach ([13]; 1 mM acetylcholine): 79.85%
- percent quench of YFP fluorescence, 3 mM ach ([13]; 3 mM acetylcholine): 79.98%
- percent quench of YFP fluorescence, 50 nM abt ([14]; 50 nM ABT-126): −3.19%
- percent quench of YFP fluorescence, 100 nM abt ([14]; 100 nM ABT-126): 7.58%
- percent quench of YFP fluorescence, 300 nM abt ([14]; 300 nM ABT-126): −1.65%
- percent quench of YFP fluorescence, 1 uM abt ([14]; 1 uM ABT-126): 31.29%
- percent quench of YFP fluorescence, 1 uM tc6 ([15]; 1 uM TC-6987): −18.24%
- percent quench of YFP fluorescence, 10 uM tc6 ([15]; 10 uM TC-6987): −23.06%
- percent quench of YFP fluorescence, 500 uM tc6 ([15]; 500 uM TC-6987): −19.3%
